Results taken from PMC6642083, “Structural basis of tubulin detyrosination by VASH2/SVBP heterodimer” (Nature Communications, 2019).

Target: T1, VASH2_(1–355)(C158A)/SVBP_(1–66) (Mus musculus, UniProt Q8C5G2 1-355; Q99LQ4 1-66, C158A)
T1 construct: SVBP, Mus musculus, residues 1-66; also called VASH2(C158A)/SVBP; source: Sf9, co-expressed (baculovirus), purified (Ni-NTA, heparin, SEC); not shown: His-tag, N-terminal, cleaved
Assay: crystal structure; tail peptide (1 mM) co-crystallized with VASH2 1–355(C158A)/SVBP 1–66 (5 mg/ml), 2.5 Å; 0.1 M HEPES pH 7.0, 1 M (NH4)2SO4, 1.105 M KCl, 18 °C
Conditions: both partners purified

T1 sequence (Q8C5G2 whole entry C158A, chain 1 of 2, the tested form may be a part): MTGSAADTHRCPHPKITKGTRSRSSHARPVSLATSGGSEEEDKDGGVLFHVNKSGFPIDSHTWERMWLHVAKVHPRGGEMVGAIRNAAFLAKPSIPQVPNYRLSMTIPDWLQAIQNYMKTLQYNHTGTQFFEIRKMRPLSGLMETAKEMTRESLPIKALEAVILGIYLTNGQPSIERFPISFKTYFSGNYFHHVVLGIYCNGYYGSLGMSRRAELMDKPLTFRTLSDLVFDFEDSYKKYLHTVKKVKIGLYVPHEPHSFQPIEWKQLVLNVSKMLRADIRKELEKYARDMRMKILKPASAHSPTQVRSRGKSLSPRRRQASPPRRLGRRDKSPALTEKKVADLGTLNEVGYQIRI
T1 sequence (Q99LQ4 whole entry, chain 2 of 2, the tested form may be a part): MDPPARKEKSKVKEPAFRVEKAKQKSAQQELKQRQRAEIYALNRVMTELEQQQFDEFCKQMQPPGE

B1: α-tubulin C-terminal tail peptide (VDSVEGEGEEEGEEY) (peptide)
peptide: VDSVEGEGEEEGEEY
notes: C-terminal tail of α-tubulin; Only the last five residues (EGEEY) were built in the crystal structure; also called tubulin tail; full-length tail; source: synthetic peptide (Biosynthesis)
B1: binds.
